Changes are numbered by the printed parent chain.
T1: recombinant human TL1A (human, UniProt O95150 71-251)
T1 construct: homotrimer; biotinylated for SPR capture; the ELISA paragraphs say only 'recombinant TL1A'; also called TNFSF15
T1 chain: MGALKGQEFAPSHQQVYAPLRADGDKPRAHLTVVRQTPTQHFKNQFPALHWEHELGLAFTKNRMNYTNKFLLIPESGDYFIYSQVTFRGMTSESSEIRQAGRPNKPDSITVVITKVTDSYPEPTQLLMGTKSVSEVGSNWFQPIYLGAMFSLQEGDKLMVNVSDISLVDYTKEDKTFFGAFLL

B1: TL1A-0024 (antibody, IgG1, V domains shown)
VH: QVQLVQSGAEVKKPGASVKVSCKASGYDFTYYGISWVRQAPGQGLEWMGWISTYNGNEHYAPSLQGRVTMTTDTSTRTAYMELRSLRSDDTAVYYCARENYYGSGAYRGGMDVWGQGTTVTVSS
VL: EIVLTQSPATLSLSPGERATLSCRASQSVSSYLAWYQQKPGQAPRLLIYDASNRATGIPARFSGSGSGTDFTLTISSLEPEDFAVYYCQQRSNWPWTFGQGTKVEIKR
notes: IgG1/kappa variant of TL1A-0002
B2: TL1A-0084 (antibody, IgG1, V domains shown)
VH: B1 VH with I51A, E58T, P62R, S63M
VL: B1 VL
notes: as for B1
B3: TL1A-0081 (antibody, IgG1, V domains shown)
VH: B1 VH with T53A, E58T, P62R, S63M
VL: B1 VL
notes: as for B1
B4: TL1A-0027 (antibody, IgG1, V domains shown)
VH: B1 VH with T53A, E58T, H59N, P62Q, S63K
VL: B1 VL
notes: as for B1
B5: TL1A-0079 (antibody, IgG1, V domains shown)
VH: B1 VH with N55Q, E58T, P62R, S63M
VL: B1 VL
notes: as for B1
B6: TL1A-0026 (antibody, IgG1, V domains shown)
VH: B1 VH with P62D
VL: B1 VL
notes: as for B1
B7: TL1A-0061 (antibody, IgG1, V domains shown)
VH: B1 VH with Y27F, E58T, P62R, S63M
VL: B1 VL
notes: as for B1
B8: TL1A-0074 (antibody, IgG1, V domains shown)
VH: B1 VH with G56T, E58T
VL: B1 VL
notes: as for B1
B9: TL1A-0080 (antibody, IgG1, V domains shown)
VH: B1 VH with N55G, E58T, P62R, S63M
VL: B1 VL
notes: as for B1
B10: TL1A-0076 (antibody, IgG1, V domains shown)
VH: B1 VH with G56D, E58T
VL: B1 VL
notes: as for B1
B11: TL1A-0069 (antibody, IgG1, V domains shown)
VH: B1 VH with Y32H, E58T, P62R, S63M
VL: B1 VL
notes: as for B1
B12: TL1A-0083 (antibody, IgG1, V domains shown)
VH: B1 VH with N55G, E58T, P62Q, S63K
VL: B1 VL
notes: as for B1
B13: TL1A-0087 (antibody, IgG1, V domains shown)
VH: B1 VH with T53A, E58T
VL: B1 VL
notes: as for B1
B14: TL1A-0082 (antibody, IgG1, V domains shown)
VH: B1 VH with T53A, E58T, P62Q, S63K
VL: B1 VL
notes: as for B1
B15: TL1A-0086 (antibody, IgG1, V domains shown)
VH: B1 VH with I51A, E58T
VL: B1 VL
notes: as for B1
B16: TL1A-0030 (antibody, IgG1, V domains shown)
VH: B1 VH with E58T, P62R, S63M, A106E
VL: B1 VL
notes: as for B1
B17: TL1A-0071 (antibody, IgG1, V domains shown)
VH: B1 VH with I34V, E58T, P62R, S63M
VL: B1 VL
notes: as for B1
B18: TL1A-0085 (antibody, IgG1, V domains shown)
VH: B1 VH with I51A, E58T, P62Q, S63K
VL: B1 VL
notes: as for B1
B19: TL1A-0067 (antibody, IgG1, V domains shown)
VH: B1 VH with Y31F, E58T, P62R, S63M
VL: B1 VL
notes: as for B1
B20: TL1A-0068 (antibody, IgG1, V domains shown)
VH: B1 VH with Y31K, E58T, P62R, S63M
VL: B1 VL
notes: as for B1
B21: TL1A-0040 (antibody, IgG1, V domains shown)
VH: B1 VH with E58T, P62R, S63M, A106D, Y107H
VL: B1 VL
notes: as for B1
B22: TL1A-0029 (antibody, IgG1, V domains shown)
VH: B1 VH with E58T, P62R, S63M, Y101L
VL: B1 VL
notes: as for B1
B23: TL1A-0063 (antibody, IgG1, V domains shown)
VH: B1 VH with T30S, E58T, P62R, S63M
VL: B1 VL
notes: as for B1
B24: TL1A-0028 (antibody, IgG1, V domains shown)
VH: B1 VH with E58T, P62R, S63M, Y102W
VL: B1 VL
notes: as for B1
B25: TL1A-0038 (antibody, IgG1, V domains shown)
VH: B1 VH with E58T, P62R, S63M, A106D, Y107F
VL: B1 VL
notes: as for B1
B26: TL1A-0031 (antibody, IgG1, V domains shown)
VH: B1 VH with E58T, P62R, S63M, A106D
VL: B1 VL
notes: as for B1
B27: TL1A-0033 (antibody, IgG1, V domains shown)
VH: B1 VH with E58T, P62R, S63M, Y107F
VL: B1 VL
notes: as for B1
B28: TL1A-0062 (antibody, IgG1, V domains shown)
VH: B1 VH with F29Y, E58T, P62R, S63M
VL: B1 VL
notes: as for B1
B29: TL1A-0073 (antibody, IgG1, V domains shown)
VH: B1 VH with G56T, E58T, P62Q, S63K
VL: B1 VL
notes: as for B1

Target: T1, recombinant human TL1A
Test: competition ELISA vs bio-TL1A-0002
Description: For this competition ELISA assay procedure, 96-well high binding plates (Corning, product number 3590) were coated with 1 μg/mL recombinant TL1A in 100 μL/well in Phospate Buffered Saline (PBS) overnight at 4° C. Plates were then blocked in PBS+0.02% casein solution and washed with PBS+0.05% Tween-20 following standard ELISA protocol. […] Plates were washed with PBS+0.05% Tween-20 following standard ELISA protocol, and Streptavidin-HRP (Southern Biotech, product number 7100-05) diluted to 1:10,000 in assay buffer was added to plates and incubated for 25-30 minutes at room temperature. Next, the plates were washed with PBS+0.05% Tween-20 following standard ELISA protocol, and then TMB substrate (BioFX Laboratories, catalog number TMBW-0100-01) was added to plates. Reactions were stopped after approximately 5 minutes by adding 0.18 M ortho-phosphoric acid to each well and absorbance was read at 450 nm.

Bioactivity relative to TL1A-0002 | IC50 | Binder
1.2 fold | 5.4 nM | B1
1 fold | 4.5 nM | B2
0.9 fold | 4.1 nM | B3
1.9 fold | 8.3 nM | B4
1.3 fold | 5.8 nM | B5
2 fold | 8.9 nM | B6
1 fold | 4.6 nM | B7
1 fold | 4.5 nM | B8
1.1 fold | 5 nM | B9
1.2 fold | 5.4 nM | B10
0.9 fold | 4.1 nM | B11
1.5 fold | 6.8 nM | B12
1.1 fold | 4.8 nM | B13
1.2 fold | 5.2 nM | B14
1.1 fold | 5 nM | B15
1.4 fold | 6.1 nM | B16
0.9 fold | 3.9 nM | B17
1 fold | 4.7 nM | B18
1.1 fold | 5.1 nM | B19
1 fold | 4.6 nM | B20
1 fold | 4.7 nM | B21
1.7 fold | 7.8 nM | B22
0.9 fold | 4.1 nM | B23
1.2 fold | 5.4 nM | B24
1.6 fold | 7.2 nM | B25
1.6 fold | 7.4 nM | B26
0.8 fold | 3.6 nM | B27
0.9 fold | 4 nM | B28
1.1 fold | 5 nM | B29

Source: patent US20240059799A1 (Pfizer, published 2024)
